Laboratory results from patent EP4634231A1 (dated 2025).
Blank lines part the entries; values can stand above or below the binder they belong to.

Legend:
[1] = target: T1, MUC-16 (CA125) expressed on SW1990 and OVCAR3 cancer cells (human, UniProt Q8WXI7 1-14507); test: flow cytometry on MUC16 expressing cancer cells
T1 construct: whole, on cells

[2] = target: T1, MUC-16 (CA125) expressed on SW1990 and …; test: flow cytometry saturation binding (MFI against concentration) on MUC-16 expressing SW1990 and OVCAR3 cells

EC50 [1]: 10 nM
B1: 89Zr-DFO-M16Ab, M16Ab conjugated with p-SCN-Bn-DFO and radiolabeled with 89Zr (antibody, V domains shown)
VH: QVQLVESGGGVVQPGGSLRLSCAASGFTFSTYGMHWVRQAPGKGLEWVAVISYDGSNKYYADSVKGRFTISRDNTNNSLYLQMSGLRAEDSAVYYCAKDVYGDFAVDSWGQGTLVTVSS
VL: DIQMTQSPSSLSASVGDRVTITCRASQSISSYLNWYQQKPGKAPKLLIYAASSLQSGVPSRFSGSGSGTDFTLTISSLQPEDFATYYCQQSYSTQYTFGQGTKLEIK
modifications: p-SCN-Bn-DFO chelator loaded with 89Zr; sites not stated
notes: also called 89Zr-DFO-M16Ab1; 89Zr-M16Ab1

EC50 [2]: 10.3 nM
Kd [2]: 12.7 nM
B2: DFO-M16Ab1, M16Ab1 IgG1 conjugated with p-SCN-Bn-DFO (antibody, V domains shown)
VH: B1 VH
VL: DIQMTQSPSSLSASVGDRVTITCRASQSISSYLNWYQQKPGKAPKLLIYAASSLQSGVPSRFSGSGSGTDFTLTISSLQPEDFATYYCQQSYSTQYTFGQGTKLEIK
modifications: p-SCN-Bn-DFO (deferoxamine) conjugated, average of two DFO molecules per antibody; sites not stated
notes: also called DFO-MUC16 Ab 1; DFO-MUC16 AB1

EC50 [2]: 9.1 nM
Kd [2]: 10.9 nM
B3: M16Ab1, fully human anti-MUC16 monoclonal antibody, full-length IgG1 (antibody, V domains shown)
VH: B1 VH
VL: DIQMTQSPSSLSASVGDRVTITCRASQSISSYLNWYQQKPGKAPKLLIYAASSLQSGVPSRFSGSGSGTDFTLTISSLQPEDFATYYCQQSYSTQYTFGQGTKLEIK
notes: also called MUC16 Ab1; MUC-16 Ab1
